The source of these data is patent US20140302034A1 (STEM CENTRX, published 2014).

The term Kd denotes a measure of binding affinity in units of concentration.

Assay [1] deals with T1, recombinant human EFNA3 His fusion protein (human, UniProt P52797 23-214).
T1 construct: also called ephrinA3-His; immobilized human EFNA3; not shown: His tag
T1 sequence: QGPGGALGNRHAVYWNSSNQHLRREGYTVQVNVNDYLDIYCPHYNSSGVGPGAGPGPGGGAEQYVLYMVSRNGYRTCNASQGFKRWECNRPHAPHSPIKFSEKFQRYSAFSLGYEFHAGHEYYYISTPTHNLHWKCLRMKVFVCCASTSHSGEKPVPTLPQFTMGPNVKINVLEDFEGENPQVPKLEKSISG
Description: BLI (ForteBio RED), antigen concentration series; column Affinity (nM). Here is the method:
Various methods were used to analyze the immunochemical characteristics of selected EFNA1 and EFNA3 modulators generated as set forth above. Specifically, a number of these antibodies were characterized as to affinity, kinetics, binning, and cross reactivity with regard to cynomolgus and mouse homologs (e.g., by ForteBio). The reactivity of the modulators was also measured by Western blot using reduced and non-reduced samples to provide some indication as to whether the epitopes were linear or not. In addition, the antibodies were tested for their ability to neutralize (e.g., block receptor ligand interaction as per Example 11), and were benchmarked for their relative EC₅₀ of killing by in vitro cytotoxicity assay (e.g., as per Examples 12-14). The results of this characterization are set forth in tabular form in FIG. 8 for modulators that primarily react with EFNA1 and in FIG. 9 for modulators that primarily react with EFNA3. Affinities and kinetic constants kₒₙ and koff of the selected modulators were measured using bio-layer interferometry analysis on a ForteBio RED (ForteBio, Inc.) with a standard antigen concentration series.
For orientation: In BLI a coated tip is dipped into the sample, and binding shifts an interference pattern.

Assay [2] addresses recombinant human EFNA1 His fusion protein (human) (UniProt P20827). The description is as above.
Assay [3] addresses T2, mouse EFNA3 (mouse, UniProt O08545).
T2 construct: the sheet prints only 'Ms XR'; also called mouse ephrin-A3 homolog
T2 sequence (ligand, looked up): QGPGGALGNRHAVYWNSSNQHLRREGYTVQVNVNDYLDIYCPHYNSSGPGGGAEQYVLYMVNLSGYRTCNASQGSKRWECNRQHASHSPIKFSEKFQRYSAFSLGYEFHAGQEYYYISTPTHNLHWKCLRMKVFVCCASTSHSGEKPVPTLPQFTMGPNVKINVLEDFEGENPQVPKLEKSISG
Description: cross-reactivity with the mouse homolog (e.g. by ForteBio).

Sequence of recombinant human EFNA1 His fusion protein (human) (P20827 19-182 limits assumed): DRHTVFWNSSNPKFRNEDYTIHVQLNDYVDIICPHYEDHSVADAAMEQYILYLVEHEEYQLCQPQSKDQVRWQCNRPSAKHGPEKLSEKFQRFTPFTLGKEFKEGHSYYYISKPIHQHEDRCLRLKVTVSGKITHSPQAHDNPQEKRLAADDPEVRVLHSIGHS

B1: SC11.32 (antibody, V domains shown)
VH: QVQLQQPGAEIVRPGASVKLSCKASGYTFTAYWMHWVKQRPGQGPEWIGAIDPSDSYTYYNQKFKGKATLTVDTSSNSAYMQLSSLTSEDSAVYFCARWDYYDGNWGQGTTLTVSS
VL: DVVMTQTPLSLPVSLGDQASISCRSSQSLVHSDGNTYLHWYLQKPGQSPKLLIYRVSNRFSGVPDRFSGSGSGTDFTLKISRVEAEDLGVYFCSQSTHVPYTFGGGTKLEIK
notes: Murine monoclonal antibody from a hybridoma; also called EFNA3 modulator SC11.32
Turning to B1, in assay [1], the Kd was 0.2 nM.

B2: SC9.20 (antibody, V domains shown)
VH: DVQLQESGPGLVKPSQSLSLTCSVTGYSITSGYYWNWIRQFPGNRLEWMAYISYDGSNDYNPSLKNRISITRDTSKNQFFLKLNSVTTEDTATYYCARGYPILFAYWGQGTLVTVSA
VL: DIKMTQSPSSMNASLGERVSITCKTSQDINSYLSWLQQKPGKSPKTLIYRANRLVDGVPSRFSGSGSGQDYSLTISSLEYEDMGIYYCLQYDEFPLTFGIGTKLELK
For the molecule B2, the dissociation constant (Kd) in assay [2] was 0.5 nM.

B3: SC11.51 (antibody, V domains shown)
VH: EVQLQQSGPELVKPGASVKISCKASGYTFTDYYMNWVKQTHGKSLEWIGDITPNSGGPTYNQNFKGKATLTVDRSSTTAFMELRSLTSDDSAVYYCVRSAYYYGTNYDFDYWGQGTTLTVSS
VL: QIVLTQSPAIMSASPGEKVTMTCSASSSVTYMYWYQQKPGSSPKPWIYRTSNLASGVPTRFSGSGSGTSYSLTISSVEAEDTATYYCQQYSDYPLTFGAGTKLELK
notes: Murine monoclonal antibody from a hybridoma; also called EFNA3 modulator SC11.51
For B3, the dissociation constant (Kd) in assay [1] turned out to be 1 nM.

B4: SC11.34 (antibody, V domains shown)
VH: DVHLQETGPGLVKPSQSLSVTCTVTGYSITSDYAWNWIRQFPGNKLEWMGYISYSGGTRYNPSVKSRISITRDTSKNQFFLQLNSVTTEDTATYYCARGPYAGYPAWFDYWGPGTLVTVSA
VL: ENVLTQSPAIMSASLGEKVTMSCRANSSINYMYWYQQKSDASPKLWIYYTSNLAPGVPARFSGSGSGNSYSLTISSMEGEDAATYYCQQFTSSPWTFGGGTKLEIK
notes: Murine monoclonal antibody from a hybridoma; also called EFNA3 modulator SC11.34
For B4, in assay [1], the dissociation constant Kd came out at 2 nM. Moreover, the binding result in assay [3] was “no binding”.
